These binders were tested against apo-calmodulin (UniProt P0DP23 1-149) (assay: fluorescence polarisation).

| Kd [µM] | Binder |
| --- | --- |
| 141 | fluorescein-labeled α11.2 IQ domain peptide AAs 1644-1668, I1654A (fluorescein covalently linked to the N-terminal amino group) peptide: not shown |
| 44.2 | fluorescein-labeled α11.2 IQ domain peptide AAs 1644-1668, K1647A (fluorescein covalently linked to the N-terminal amino group) peptide: not shown |
| 22.3 | fluorescein-labeled α11.2 IQ domain peptide AAs 1644-1668, Q1655A (fluorescein covalently linked to the N-terminal amino group) peptide: not shown |
| 32.4 | fluorescein-labeled α11.2 IQ domain peptide AAs 1644-1668, F1648A (fluorescein covalently linked to the N-terminal amino group) peptide: not shown |
| 61.9 | fluorescein-labeled α11.2 IQ domain peptide AAs 1644-1668, Y1649A (fluorescein covalently linked to the N-terminal amino group) peptide: not shown |
